Article PMC4705653

Tests used:
Sld3 = Sld3 (UniProt P53135); experiment: anti-Mcm2 co-IP, Sld3 blot; details: reference: wild-type mcm2; sites S164,S170
[1] = target: GST-Mcm10 (budding yeast) (UniProt P32354); experiment: pull-down; 30 pmol GST-tagged protein on Glutathione Sepharose, varying concentrations of 32P-labelled PKA-tagged protein in solution; GST binding buffer (40 mM Tris–HCl pH 7.5, 100 mM NaCl, 0.1 mM EDTA, 10% glycerol, 0.1% Triton X-100, 1 mM DTT, 0.1 mg/ml BSA), 100 μl, 30°C, 10 min; SDS-PAGE and phosphorimaging; in some panels with 5 mM ATP or ATPγS, or with a third labelled protein (Mcm10, Sld3) added
Chain of GST-Mcm10 (budding yeast) (P32354 whole entry): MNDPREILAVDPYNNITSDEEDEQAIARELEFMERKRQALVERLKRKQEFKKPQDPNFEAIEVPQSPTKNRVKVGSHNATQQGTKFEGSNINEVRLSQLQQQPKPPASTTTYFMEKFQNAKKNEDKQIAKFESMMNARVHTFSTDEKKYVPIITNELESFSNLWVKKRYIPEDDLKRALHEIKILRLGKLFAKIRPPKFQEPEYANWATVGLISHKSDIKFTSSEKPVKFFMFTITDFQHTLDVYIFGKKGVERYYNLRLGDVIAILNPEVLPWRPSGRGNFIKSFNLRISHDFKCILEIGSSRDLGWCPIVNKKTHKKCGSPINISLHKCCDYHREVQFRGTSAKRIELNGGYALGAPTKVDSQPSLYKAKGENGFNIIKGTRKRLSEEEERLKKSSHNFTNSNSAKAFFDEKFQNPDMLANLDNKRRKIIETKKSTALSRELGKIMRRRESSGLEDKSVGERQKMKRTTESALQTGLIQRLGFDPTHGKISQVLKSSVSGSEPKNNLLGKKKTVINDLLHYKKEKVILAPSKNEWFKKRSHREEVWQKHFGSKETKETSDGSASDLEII

Substance	binding against the reference (Sld3)	signal relative to GST alone [1] [times]
Mcm2 (from UniProt P29469) mcm2-2A (S164A S170A)	lost	–
PKA-Mcm2–7 complex (radiolabeled, wild type), P29469 1-868; P24279 1-971; P30665 1-933; P29496 1-775; P53091 1-1017; P38132 1-845	–	> 10
